Assay results from patent publication US4609623A, “Microbiologically produced D-2-hydroxy-4-methylpentanoic acid dehydrogenase, process for its production and its use” (Degussa AG, priority 1983, dated 1986).
Each block holds one molecule with its values, some of them ahead of it.

Key:
[1] = molecular target: T1, D-2-hydroxy-4-methylpentanoic acid dehydrogenase (Lacticaseibacillus paracasei, UniProt P17584); test: Dehydrogenation kinetics: reaction velocity versus NAD+ and 2-hydroxycarboxylic acid concentration
T1 sequence (P17584 1-333): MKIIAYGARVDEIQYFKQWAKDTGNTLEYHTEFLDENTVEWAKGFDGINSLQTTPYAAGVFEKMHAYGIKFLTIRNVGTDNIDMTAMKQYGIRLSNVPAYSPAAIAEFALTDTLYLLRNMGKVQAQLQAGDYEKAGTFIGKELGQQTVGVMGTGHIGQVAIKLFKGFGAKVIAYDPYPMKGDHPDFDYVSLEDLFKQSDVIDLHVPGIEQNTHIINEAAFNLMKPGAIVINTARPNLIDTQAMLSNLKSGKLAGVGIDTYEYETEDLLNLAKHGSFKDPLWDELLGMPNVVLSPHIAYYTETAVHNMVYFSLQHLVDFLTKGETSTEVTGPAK
Method: The dependence of the reaction velocity on the NAD^+ concentration in the dehydrogenation of D-2-hydroxy-4-methylpentanoic acid was studied in the following test mixture: 0.1M phosphate buffer at pH 8.0, 12 mM D,L-2-hydroxy-4-methylpentanoic acid, limiting quantities of enzyme.
The dependence of the reaction speed on the concentration of different 2-hydroxycarboxylic acids for the dehydrogenation of D-2-hydroxycarboxylicacids was tested in the following test mixture: 0.1M phosphate buffer at pH 8.0, 4.5 mM NAD^+ and limiting quantities of enzyme. The concentration of D-2-hydroxycarboxylic acid was varied in the range from 0.1 to a maximum of 30 mM. Inasmuch as no chiral D-2-hydroxycarboxylic acid was available, the racemate was added. […] The initial reaction velocity was evaluated according to Michaelis-Menten, and the kinetic constants Vmax and KM determined by non-linear regression.

[2] = molecular target: T1, D-2-hydroxy-4-methylpentanoic acid dehydrogenase; test: Reduction kinetics: reaction velocity versus NADH and 2-ketocarboxylic acid concentration; format: biochemical, Lactobacillus casei ssp. pseudoplantarum; parameters: endogenous in cells; host or cells: Lactobacillus casei ssp. pseudoplantarum DSM 20008, enzyme isolated from the cells grown in house
Method: The reaction speed for reduction of different 2-ketocarboxylic acids was also investigated as a function of the keto acid concentration. […] The ketocarboxylic acid concentration was in each case varied from 0.01 to a maximum of 60 mM. The initial reaction velocity, change of extinction at 340 nm/min, was evaluated by non-linear regression of the Michaelis-Menten equation.

[3] = molecular target: T1, D-2-hydroxy-4-methylpentanoic acid dehydrogenase; test: Reduction of 2-ketocarboxylic acids in an enzyme membrane reactor with PEG-NADH, polarimetric read-out; format: biochemical, Lactobacillus casei ssp. pseudoplantarum (DSM 20008); parameters: endogenous in cells; host or cells: Lactobacillus casei ssp. pseudoplantarum DSM 20008, enzyme isolated from the cells grown in house; conditions: 7.0 mM 2-ketocarboxylic acid feed, stationary value; for Rotation of Production Solution: 463 nm, 25° C.
Method: (Preparation according to DE-PS 28 41 414). The following keto acids were converted individually in the reactor:
2-keto-4-methylpentanoic acid (sodium salt), 2-keto-4-(methylmercapto)-butyric acid (sodium salt) and phenyl pyruvate (sodium salt). The product stream flowing out of the membrane reactor was analyzed continuously in a polarimeter. The signals obtained were evaluated by means of calibration curves which had been obtained from optically active 2-hydroxy acids.
The PEG-NADH is prepared according to DE-PS No. 28 41 414. […] The reactor volume is kept constant, by adding keto acid and sodium formate buffer from a reservoir at the same rate as the ultrafiltrate leaves the reactor. The reactor volume was 10 ml, the concentration of PEG-NADH 0.20 mM, and 9 U D-2-hydroxy-4-methylpentanoic acid dehydrogenase (27 U/mg) and 30 U formate-dehydrogenase were fed into the reactor. The substrate solution contained 300 mM sodium formate buffer of pH 7.0 and 7.0 mM of the corresponding 2-ketocarboxylic acid. The reaction solution was pumped over the membrane continuously with a peristaltic pump at 30 ml/hour. About 3 ml ultrafiltrate per hour was obtained. The ultrafiltrate was led continuously through a polarimeter cell (Perkin Elmer Type 241). The determinations were carried out at 463 nm and 25° C. From the measured rotatory value, the product concentration was determined from a calibration curve. The calibration curves were prepared with optically active 2-hydroxycarboxylic acids in 300 mM sodium formate buffer of pH 7.0. For this, the following preparations were used: L-phenyllactic acid (Sigma Company, Munich), L-2-hydroxy-4-methylpentanoic acid (Sigma Company, Munich), and D-2-hydroxy-4-(methylmercapto)-butyric acid (Degussa Company, Hanau). The conversion in the membrane reactor was followed over a period of 15 hours.

[4] = substrate: CCCC(=O)C(=O)O; test: purified protein, by the assay type; format: biochemical, Lactobacillus casei ssp. pseudoplantarum; conditions: other: reduction, pH 7.0, 0.1 mM NADH
[5] = substrate: CCC(=O)C(=O)O; test: purified protein, by the assay type; format: biochemical, Lactobacillus casei ssp. pseudoplantarum; conditions: other: reduction, pH 7.0, 0.1 mM NADH
[6] = substrate: CCCCCCC(=O)C(=O)O; test: purified protein, by the assay type; format: biochemical, Lactobacillus casei ssp. pseudoplantarum; conditions: other: reduction, pH 7.0, 0.1 mM NADH
[7] = substrate: CCC(C)C(=O)C(=O)O; test: purified protein, by the assay type; format: biochemical, Lactobacillus casei ssp. pseudoplantarum; conditions: other: reduction, pH 7.0, 0.1 mM NADH
[8] = substrate: CC(C)CC(=O)C(=O)O; test: purified protein, by the assay type; format: biochemical, Lactobacillus casei ssp. pseudoplantarum; conditions: other: reduction, pH 7.0, 0.1 mM NADH
[9] = substrate: CC(C)C(=O)C(=O)O; test: purified protein, by the assay type; format: biochemical, Lactobacillus casei ssp. pseudoplantarum; conditions: other: reduction, pH 7.0, 0.1 mM NADH
[10] = substrate: CSCCC(=O)C(=O)O; test: purified protein, by the assay type; format: biochemical, Lactobacillus casei ssp. pseudoplantarum; conditions: other: reduction, pH 7.0, 0.1 mM NADH
[11] = substrate: O=C(O)C(=O)CS; test: purified protein, by the assay type; format: biochemical, Lactobacillus casei ssp. pseudoplantarum; conditions: other: reduction, pH 7.0, 0.1 mM NADH
[12] = substrate: CCCCC(=O)C(=O)O; test: purified protein, by the assay type; format: biochemical, Lactobacillus casei ssp. pseudoplantarum; conditions: other: reduction, pH 7.0, 0.1 mM NADH
[13] = substrate: CCCCCCC(O)C(=O)O; test: purified protein, by the assay type; conditions: other: dehydrogenation, pH 8.0, 4.5 mM NAD+, calculated assuming 50% D-acid in the racemic mixtures
[14] = substrate: O=C(O)C(O)Cc1ccccc1; test: purified protein, by the assay type; conditions: other: dehydrogenation, pH 8.0, 4.5 mM NAD+, calculated assuming 50% D-acid in the racemic mixtures
[15] = substrate: CC(C)C[C@@H](O)C(=O)O; test: purified protein, by the assay type; conditions: other: dehydrogenation, pH 8.0, 4.5 mM NAD+, calculated assuming 50% D-acid in the racemic mixtures
[16] = substrate: CCCC(O)C(=O)O; test: purified protein, by the assay type; conditions: other: dehydrogenation, pH 8.0, 4.5 mM NAD+, calculated assuming 50% D-acid in the racemic mixtures
[17] = substrate: O=C(O)C(=O)Cc1ccccc1; test: purified protein, by the assay type; conditions: other: reduction, pH 7.0, 0.1 mM NADH
[18] = substrate: CC(C)CC(O)C(=O)O; test: purified protein, by the assay type; conditions: other: dehydrogenation, pH 8.0, 4.5 mM NAD+, calculated assuming 50% D-acid in the racemic mixtures
[19] = substrate: CSCCC(O)C(=O)O; test: purified protein, by the assay type; conditions: other: dehydrogenation, pH 8.0, 4.5 mM NAD+, calculated assuming 50% D-acid in the racemic mixtures
[20] = substrate: NC(=O)C1=CN([C@@H]2O[C@H](COP(=O)(O)OP(=O)(O)OC[C@H]3O[C@@H](n4cnc5c(N)ncnc54)[C@H](O)[C@@H]3O)[C@@H](O)[C@H]2O)C=CC1; test: purified protein, by the assay type; conditions: other: pH 7.0, 0.7 mM 2-keto-4-methylpentanoic acid
[21] = substrate: NC(=O)c1ccc[n+]([C@@H]2O[C@H](COP(=O)([O-])OP(=O)(O)OC[C@H]3O[C@@H](n4cnc5c(N)ncnc54)[C@H](O)[C@@H]3O)[C@@H](O)[C@H]2O)c1; test: purified protein, by the assay type; conditions: other: pH 8.0, 12 mM D,L-2-hydroxy-4-methylpentanoic acid
[22] = substrate: CCCCC(O)C(=O)O; test: purified protein, by the assay type; conditions: other: dehydrogenation, pH 8.0, 4.5 mM NAD+, calculated assuming 50% D-acid in the racemic mixtures

Replacement of the coenzyme NAD+ ([1]; checked at test concentrations up to 10 mM): cannot replace
Molecule: NC(=O)c1ccc[n+]([C@@H]2O[C@H](COP(=O)([O-])OP(=O)(O)OC[C@H]3O[C@@H](n4cnc5c(N)ncnc54)[C@H](OP(=O)(O)O)[C@@H]3O)[C@@H](O)[C@H]2O)c1 [NADP]

Replacement of the coenzyme NADH ([2]; checked up to a test concentration of 0.2 mM): cannot replace
Molecule: NC(=O)C1=CN([C@@H]2O[C@H](COP(=O)(O)OP(=O)(O)OC[C@H]3O[C@@H](n4cnc5c(N)ncnc54)[C@H](OP(=O)(O)O)[C@@H]3O)[C@@H](O)[C@H]2O)C=CC1 [NADPH]

Rotation of Production Solution [3]: -0.115 °
% conversion [3]: 100%
Product concentration [3]: 7.0 mM
Molecule: O=C(O)C(=O)Cc1ccccc1 [2-keto-3-phenylpropionic acid]

Molecule: NC(=O)c1ccc[n+]([C@@H]2O[C@H](COP(=O)([O-])OP(=O)(O)OC[C@H]3O[C@@H](n4cnc5c(N)ncnc54)[C@H](O)[C@@H]3O)[C@@H](O)[C@H]2O)c1 [NAD^+, nicotinamide-adeninedinucleotide]
NAD+ concentration at which the optimum conversion is reached ([1]; pH 8.0, 12 mM D,L-2-hydroxy-4-methylpentanoic acid): 4.5 mM

Rotation of Production Solution [3]: -0.047 °
% conversion [3]: 100%
Product concentration [3]: 7.0 mM
Molecule: CC(C)CC(=O)C(=O)O [2-keto-4-methylpentanoic acid]

Rotation of Production Solution [3]: -0.071 °
% conversion [3]: 98%
Product concentration [3]: 6.9 mM
Molecule: CSCCC(=O)C(=O)O [2-keto-4-(methylmercapto)-butyric acid]

NADH concentration at which the optimal reaction velocity was reached ([2]; pH 7.0, 0.7 mM 2-keto-4-methylpentanoic acid): 0.10 mM
Molecule: NC(=O)C1=CN([C@@H]2O[C@H](COP(=O)(O)OP(=O)(O)OC[C@H]3O[C@@H](n4cnc5c(N)ncnc54)[C@H](O)[C@@H]3O)[C@@H](O)[C@H]2O)C=CC1 [NADH]

B1: D-2-hydroxy-4-methylpentanoic acid dehydrogenase (Lacticaseibacillus paracasei) (protein)
chain: MKIIAYGARVDEIQYFKQWAKDTGNTLEYHTEFLDENTVEWAKGFDGINSLQTTPYAAGVFEKMHAYGIKFLTIRNVGTDNIDMTAMKQYGIRLSNVPAYSPAAIAEFALTDTLYLLRNMGKVQAQLQAGDYEKAGTFIGKELGQQTVGVMGTGHIGQVAIKLFKGFGAKVIAYDPYPMKGDHPDFDYVSLEDLFKQSDVIDLHVPGIEQNTHIINEAAFNLMKPGAIVINTARPNLIDTQAMLSNLKSGKLAGVGIDTYEYETEDLLNLAKHGSFKDPLWDELLGMPNVVLSPHIAYYTETAVHNMVYFSLQHLVDFLTKGETSTEVTGPAK
notes: 500 g Lactobacillus casei ssp. pseudoplantarum (DSM 20008) wet mass was suspended in 50 mM phosphate buffer; endogenous in cells; host or cells: Lactobacillus casei ssp. pseudoplantarum DSM 20008, enzyme isolated from the cells grown in house
Km [4]: 110 µM
Vmax [4]: 59.1 µmol/min/mg
Km [5]: 1700 µM
Vmax [5]: 45.9 µmol/min/mg
Km [6]: 310 µM
Vmax [6]: 54.0 µmol/min/mg
Km [7]: 2200 µM
Vmax [7]: 26.2 µmol/min/mg
Km [8]: 60 µM
Vmax [8]: 27.4 µmol/min/mg
Km [9]: 4800 µM
Vmax [9]: 16.9 µmol/min/mg
Km [10]: 620 µM
Vmax [10]: 82.1 µmol/min/mg
Km [11]: 400 µM
Vmax [11]: 104.5 µmol/min/mg
Km [12]: 110 µM
Vmax [12]: 58.4 µmol/min/mg
Km [13]: 310 µM
Vmax [13]: 10.0 µmol/min/mg
Km [14]: 1100 µM
Vmax [14]: 32.6 µmol/min/mg
Km [15]: 1400 µM
Vmax [15]: 20.2 µmol/min/mg
Km [16]: 700 µM
Vmax [16]: 10.8 µmol/min/mg
Km [17]: 150 µM
Vmax [17]: 304.4 µmol/min/mg
Km [18]: 1400 µM
Vmax [18]: 20.2 µmol/min/mg
Km [19]: 1500 µM
Vmax [19]: 2.6 µmol/min/mg
Km [20]: 10 µM
Km [21]: 450 µM
Km [22]: 470 µM
Vmax [22]: 11.3 µmol/min/mg
